Results on 1 protein are retold here after article doi:10.1101/2024.06.05.597502v1.

What is called Km is the concentration of substrate that gives half-maximal velocity.

Substrate in this data set: O=[N+]([O-])c1ccc(O[C@@H]2O[C@H](CO)[C@@H](O)[C@H](O)[C@H]2O)cc1
In words: purified protein. The settings on record: 50 mM sodium acetate pH 5.5, 55 °C.

B1: AoBgl (Aspergillus oryzae exo-β-(1,3) glucanase) (Aspergillus oryzae RIB40) (protein)
chain: SRLDPRASSFDYNGEKVRGVNLGGWLVLEPWITPSIFDAAGAEAVDEWSLTKILGKEEAEARLSAHWKSFVSAGDFQRMADAGLNHVRIPIGYWALGPLEGDPYVDGQLEYLDKAVEWAGAAGLKVLIDLHGAPGSQNGFDNSGRRGAIQWQQGDTVEQTLDAFDLLAERYLGSDTVAAIEAINEPNIPGGVDQGKLQEYYGSVYGIVNKYNAGTSVVYGDGFLPVESWNGFKTEGSKVVMDTHHYHMFDNGLIAMDIDSHIDAVCQFAHQHLEASDKPVIVGEWTGAVTDCAKYLNGKGNGARYDGSYAADKAIGDCSSLATGFVSKLSDEERSDMRRFIEAQLDAFELKSGWVFWTWKTEGAPGWDMSDLLEAGVFPTSPDDREFPKQC
In the case of B1, the Km came out at 5.78 mM.
